For three sequences, Kd results are on record in paper PMC7022936.

In the series the test system is DcGliZ full-length (Dichotomomyces cejpii FS110). As to the kind of experiment: SPR. As to conditions: SPR: HBS-EP (10 mM HEPES pH 7.4, 150 mM NaCl, 0.005% P20), 22 C; EMSA: Beyotime chemiluminescent kit, 5 uL of 1 uM probe + 2 uL protein (~1 mg/mL in Methods …). A general note: A gel shift assay detects complexes by their altered migration in electrophoresis.
Broadly, the Kd is the concentration at which binding is half-saturated. As for “GTTTCTATGTCTATATCGGAGGAGTGATCAACGGCGTCCGAAAATTCGGCCCGCGGCTGTCTTAGGGCTGGCCTGCAGGTGTAGGGTTCATTATGAAAGACTGGTAGTATTATGCTGCTATTTAGTCAAAAGCAGAAGAACAGTTTGTCTTTAGACCTTGAATAGATATCTGTCAAGACAAGAGCCAAGAAAGTCCCATCACCATGGCAGACATGACCGAACGACCTTCTGATCTCGTTGTGGACAGGCTGGTTCTCTTCG (double strand) [pG (gliG promoter)]”, the Kd stood at 0.16 µM.

Regarding “TAGTCTATCACTGAACAGTTGAATGAATTTGTTTCAAGACAGCTAAAGCTCCATTCTAGCCGTACGTACTGGTAGTTCTCCGCATAGAAACATATATCTCTCTGCTTGGTCAAAGTCAGGTATCGCCGACAAGTCTTAATATCTGCAGAGTATTCGGTGACCGAAATAGGGTCGGAATATAAGCCATATATATCACTGTTCTGGAAATCAAGAAAATATAACAGTTGAATACTCACTTTTCTAACATTCCAACAATCAGTTGAGCTCGATCACA (double strand) [pM (gliM promoter)]”, the Kd came to 0.162 µM.

As to “TTACTTCTTGGTCTACTCCGTATTGTGAATCGAAATGAGATAGAAGTATAGTTCTACTGTACTGGTTTCTATCTGCTTAAAATAAATACAATTGTGCCTTCTATACAGATCAGTATGTAGAATGAACTGATAGACCTCCAGGAGGTTCTTCCTCCGAGCCTGCAACGCCCAAGAGGAGAACTGTGCATACGCCAGGACAGATTTTCGGCCTCCGAAAAGGACTGAGGATAGTATCTGCCATGTTTATATATAACTGAGGGAATAGACCAGGTAGATAACAGCAAAATCAACTAAACATCATC (double strand) [pN (gliN promoter)]”, the Kd worked out at 0.104 µM.
